Like-named read-outs stand apart in the source and are kept apart here. Starred links: 1 amine or outer side, 2 acyl side, 3 side chain; linkers in the order of their positions; H or OH if unused. Positions of bridges follow the written chain, without caps; N, C: chain ends. Non-standard residues stand in square brackets, D forms with d. Residues, ends and D or L forms follow the SMILES beside them. No end group written: not given here. *: point of attachment. 2‑Acetamido‑1‑Methyl‑Glucuronyl = 2-Acetamido-1-methyl-glucuronyl N-terminal group; Phe(4-guanidino) = N=C(N)Nc1ccc(C[C@H](N)C(=O)O)cc1; XX1 = 2-Amino-3-(4-piperidinyl)propionic acid; Ebd = Cys(Et), CCSC[C@H](N[*:1])C(=O)[*:2]; X4 = O=C1CCC(=O)N1[C@@H](Cc1ccccc1)C(=O)*; Phe(4-Me) = Cc1ccc(C[C@H](N)C(=O)O)cc1; 2Nal = N[C@@H](Cc1ccc2ccccc2c1)C(=O)O; XX2 = 4-guanidyl-piperidinyl-alanine; Acetyl(4-pyridyl) = O=C(Cc1ccncc1)*; Bta = N[C@@H](Cc1csc2ccccc12)C(=O)O; d(hLeu) = CC(C)CC[C@@H](N)C(=O)O; 2Thi = N[C@@H](Cc1cccs1)C(=O)O; Cha = N[C@@H](CC1CCCCC1)C(=O)O; dCha = N[C@H](CC1CCCCC1)C(=O)O; Chg = N[C@H](C(=O)O)C1CCCCC1; hLeu = CC(C)CC[C@H](N)C(=O)O; dNle = CCCC[C@@H](N)C(=O)O; Eag = 2-Propargylglycine; Nle = CCCC[C@H](N)C(=O)O; Orn = NCCC[C@H](N)C(=O)O; Pra = C#CC[C@H](N)C(=O)O
T1: human C5aR (CD88) (Homo sapiens, UniProt P21730)
T1 construct: expressed in transfected cells; host or cells: rat basophilic leukemia cells (RBL)
T1 sequence (P21730 1-350): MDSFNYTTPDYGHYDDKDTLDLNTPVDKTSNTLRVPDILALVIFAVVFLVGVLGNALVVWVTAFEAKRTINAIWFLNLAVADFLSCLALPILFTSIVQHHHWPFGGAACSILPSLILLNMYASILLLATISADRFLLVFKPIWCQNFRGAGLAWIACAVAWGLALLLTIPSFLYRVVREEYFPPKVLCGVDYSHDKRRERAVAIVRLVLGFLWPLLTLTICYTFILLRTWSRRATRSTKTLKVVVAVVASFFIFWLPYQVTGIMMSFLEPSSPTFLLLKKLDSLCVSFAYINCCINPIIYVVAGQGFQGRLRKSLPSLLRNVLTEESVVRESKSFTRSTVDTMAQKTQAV

T2: human C5aR (CD88) (human, UniProt P21730 1-350)
T2 sequence (looked up): T1 sequence (P21730 1-350)

B1: Ac-Phe-[Orn-Pro-hle-Trp-Nle] (peptide)
peptide: Ac-F[Orn]P[d(hLeu)]W[Nle]
modifications: lactam 2-C (inferred)
B2: Ac-Phe-[Orn-Pro-cha-Trp-Hle] (peptide)
peptide: Ac-F[Orn]P[dCha]W[hLeu]
modifications: lactam (positions not given here); not fully specified (bridges); printed as Ac-Phe-[Orn-Pro-cha-Trp-Hle]
B3: Ac-Phe-[Orn-Pro-cha-Trp-XX1] (peptide)
peptide: Ac-F[Orn]P[dCha]W[XX1]
modifications: lactam (positions not given here); not fully specified (bridges); printed as Ac-Phe-[Orn-Pro-cha-Trp-XX1]
B4: Ph-CH2-[Orn-Pro-cha-Trp-Nle] (peptide)
peptide: {Ph‑CH2}-[Orn]P[dCha]W[Nle]
modifications: lactam 1-C
B5: Ac-Phe-Orn-Pro-hch-Trp-Phe-OH (peptide)
peptide: Ac-F[Orn]P[dHch]WF-OH
B6: X-Phe-[Orn-Pro-cha-Trp-Nle]; X = 2-Acetamido-1-Methyl-Glucuronyl (peptide)
peptide: {2‑Acetamido‑1‑Methyl‑Glucuronyl}-F[Orn]P[dCha]W[Nle]
modifications: lactam 2-C
B7: Ph-CH(OH)-CH2-CO-[Orn-Pro-cha-Trp-Nle] (peptide)
peptide: {Ph‑CH(OH)‑CH2‑CO}-[Orn]P[dCha]W[Nle]
modifications: lactam 1-C
B8: Ac-Phe-[Orn-Pro-cha-Trp-Arg(CH2CH2)] (peptide)
peptide: FXPXWR
modifications: not fully specified; Ac-; Orn2; cha4 (D); Arg(CH2CH2)6; cyclic [2-6]
B9: Ac-Phe-[Orn-Pro-cha-Trp-Eag] (peptide)
peptide: Ac-F[Orn]P[dCha]W[Eag]
modifications: lactam (positions not given here); not fully specified (bridges); printed as Ac-Phe-[Orn-Pro-cha-Trp-Eag]
B10: Ac-Phe-[Orn-Pro-cha-Trp-Thi] (peptide)
peptide: Ac-F[Orn]P[dCha]W[2Thi]
modifications: lactam (positions not given here); not fully specified (bridges); printed as Ac-Phe-[Orn-Pro-cha-Trp-Thi]
B11: Ac-Phe-[Orn-Pro-cha-Trp-Cha] (peptide)
peptide: Ac-F[Orn]P[dCha]W[Cha]
modifications: lactam (positions not given here); not fully specified (bridges); printed as Ac-Phe-[Orn-Pro-cha-Trp-Cha]
B12: Ac-Phe-[Orn-Pro-cha-Trp-Tyr] (peptide)
peptide: Ac-F[Orn]P[dCha]WY
modifications: lactam (positions not given here); not fully specified (bridges); printed as Ac-Phe-[Orn-Pro-cha-Trp-Tyr]
B13: Ac-Phe-[Orn-Pro-cha-Trp-Ala] (peptide)
peptide: Ac-F[Orn]P[dCha]WA
modifications: lactam (positions not given here); not fully specified (bridges); printed as Ac-Phe-[Orn-Pro-cha-Trp-Ala]
B14: Fbi-Phe-[Orn-Pro-cha-Trp-Nle] (peptide)
peptide: {Acetyl(4-pyridyl)}-F[Orn]P[dCha]W[Nle]
modifications: lactam 2-C (inferred)
B15: Ac-Phe-[Orn-Pro-cha-Trp-Cit] (peptide)
peptide: FXPXWX
modifications: not fully specified; Ac-; Orn2; cha4 (D); Cit6; cyclic [2-6]
B16: Ac-Phe-[Orn-Pro-cha-Trp-Phe] (peptide)
peptide: Ac-F[Orn]P[dCha]WF
modifications: lactam (positions not given here); not fully specified (bridges); printed as Ac-Phe-[Orn-Pro-cha-Trp-Phe]
B17: Ac-Phe-[Orn-Pro-cha-Trp-Har] (peptide)
peptide: FXPXWX
modifications: not fully specified; Ac-; Orn2; cha4 (D); Har6; cyclic [2-6]
B18: Ac-Phe-[Orn-Pro-cha-Trp-Ebd] (peptide)
peptide: Ac-F[Orn]P[dCha]W[Ebd]
modifications: lactam (positions not given here); not fully specified (bridges); printed as Ac-Phe-[Orn-Pro-cha-Trp-Ebd]
B19: Ac-Phe-[Orn-Pro-cha-Trp-Leu] (peptide)
peptide: Ac-F[Orn]P[dCha]WL
modifications: lactam (positions not given here); not fully specified (bridges); printed as Ac-Phe-[Orn-Pro-cha-Trp-Leu]
B20: Ac-Phe-[Orn-Pro-cha-Trp-XX2] (peptide)
peptide: Ac-F[Orn]P[dCha]W[XX2]
modifications: lactam (positions not given here); not fully specified (bridges); printed as Ac-Phe-[Orn-Pro-cha-Trp-XX2]
B21: Ph-CH2-[Orn-Pro-cha-Trp-Phe] (peptide)
peptide: {Ph‑CH2}-[Orn]P[dCha]WF
modifications: lactam 1-C
B22: Ac-Phe-[Orn-Pro-cha-Trp-2Ni] (peptide)
peptide: Ac-F[Orn]P[dCha]W[2Nal]
modifications: lactam (positions not given here); not fully specified (bridges); printed as Ac-Phe-[Orn-Pro-cha-Trp-2Ni]
B23: Ac-Phe-[Orn-Pro-cha-Trp-Pmf] (peptide)
peptide: Ac-F[Orn]P[dCha]W[Phe(4-Me)]
modifications: lactam (positions not given here); not fully specified (bridges); printed as Ac-Phe-[Orn-Pro-cha-Trp-Pmf]
B24: Ac-Phe-[Orn-Pro-cha-Trp-Guf] (peptide)
peptide: Ac-F[Orn]P[dCha]W[Phe(4-guanidino)]
modifications: lactam (positions not given here); not fully specified (bridges); printed as Ac-Phe-[Orn-Pro-cha-Trp-Guf]
B25: Ac-Phe-[Orn-Pro-cha-Trp-Met] (peptide)
peptide: Ac-F[Orn]P[dCha]WM
modifications: lactam (positions not given here); not fully specified (bridges); printed as Ac-Phe-[Orn-Pro-cha-Trp-Met]
B26: Ac-Phe-[Orn-Pro-cha-Trp-nle] (peptide)
peptide: Ac-F[Orn]P[dCha]W[dNle]
modifications: lactam 2-C (inferred)
B27: Ac-Phe-[Orn-Pro-cha-Trp-Chg] (peptide)
peptide: Ac-F[Orn]P[dCha]W[Chg]
modifications: lactam (positions not given here); not fully specified (bridges); printed as Ac-Phe-[Orn-Pro-cha-Trp-Chg]

How the values were obtained:
human C5aR (CD88) [1] = target: T1, human C5aR (CD88); experiment: Determination of the IC50 value in an enzyme release assay (functional assay, antagonistic activity); format: cell-based; conditions: for IC50-value compared to compound 40 (in words): arginine replaced by hydrophobic substitutions; for IC50: antagonistic activity, enzyme release assay in RBL cells expressing human C5aR (CD88), read-out: activity (group)
human C5aR (CD88) [2] = target: T2, human C5aR (CD88); experiment: cell-based or functional assay
[3] = noteworthy = IC50 of less than 200 nM in the functional assay

Row | Molecule | IC50 activity group, enzyme release assay (human C5aR (CD88) [2]) [nM] | also measured
1 | CSCC[C@@H]1NC(=O)[C@H](Cc2c[nH]c3ccccc23)NC(=O)[C@@H](CC2CCCCC2)NC(=O)[C@@H]2CCCN2C(=O)[C@@H](NC(=O)[C@H](Cc2ccccc2)NC(C)=O)CCCNC1=O [Compound 29, Ac-Phe-[Orn-Pro-cha-Trp-Met]] (Ac-F[Orn]P[dCha]WM; lactam 2-C) |  | IC50-value compared to compound 40 (in words) (human C5aR (CD88) [1]): without a significant increase of the IC50-value; inhibitory activity (in words) (human C5aR (CD88) [1]; [3]): noteworthy inhibitory activity
2 | Ac-Phe-[Orn-Hyp(CONHCH2COH(OH)CH2OH)-cha-Trp-Phe] |  | inhibitory activity (in words) (human C5aR (CD88) [1]): noteworthy inhibitory activity
3 | NCCC[C@H](NC(=O)[C@H](Cc1ccccc1)N1C(=O)CCC1=O)C(=O)N1CCC[C@H]1C(=O)N[C@H](CC1CCCCC1)C(=O)N[C@@H](Cc1csc2ccccc12)C(=O)N[C@@H](Cc1ccccc1)C(N)=O [Compound 133, (—CO—CH2—CH2—CO—)-Phe-Orn-Pro-cha-Bta-Phe-NH2] (X4-[Orn]P[dCha][Bta]F-NH2) |  | IC50 (human C5aR (CD88) [1]): 200 to 2000 nM
4 | Ac-Phe-[Orn-Hyp(COCH2OCH2CH2OCH2CH2OCH3)-cha-Trp-Phe] |  | inhibitory activity (in words) (human C5aR (CD88) [1]; [3]): noteworthy inhibitory activity
5 | CC(=O)N[C@@H](C)C(=O)N[C@H]1CCCNC(=O)[C@H](CCCN=C(N)N)NC(=O)[C@H](Cc2c[nH]c3ccccc23)NC(=O)[C@@H](CC2CCCCC2)NC(=O)[C@@H]2CCCN2C1=O [Compound 45] (Ac-A[Orn]P[dCha]WR; lactam 2-C) |  | IC50 (human C5aR (CD88) [1]): > 2000 nM
6 | C#CC[C@@H]1NC(=O)[C@H](Cc2c[nH]c3ccccc23)NC(=O)[C@@H](CC2CCCCC2)NC(=O)[C@@H]2CCCN2C(=O)[C@@H](NC(=O)[C@H](Cc2ccccc2)NC(C)=O)CCCNC1=O [Compound 35, Ac-Phe-[Orn-Pro-cha-Trp-Eag]] (Ac-F[Orn]P[dCha]W[Pra]; lactam 2-C) |  | IC50-value compared to compound 40 (in words) (human C5aR (CD88) [1]): without a significant increase of the IC50-value; inhibitory activity (in words) (human C5aR (CD88) [1]; [3]): noteworthy inhibitory activity
7 | B1 | ≤ 50 | 
8 | B2 | ≤ 50 | 
9 | B3 | > 2000 | 
10 | B4 | ≤ 50 | 
11 | B5 | ≤ 200 | 
12 | B6 | ≤ 50 | 
13 | B7 | ≤ 50 | 
14 | B8 | ≤ 2000 | 
15 | B9 | ≤ 10 | 
16 | B10 | ≤ 50 | 
17 | B11 | ≤ 200 | 

Row | Molecule | IC50 activity group, enzyme release assay (human C5aR (CD88) [2]) [nM] | also measured
18 | B12 | ≤ 50 | 
19 | B13 | > 2000 | 
20 | B14 | ≤ 200 | 
21 | B15 | ≤ 2000 | 
22 | B16 | ≤ 50 | 
23 | B17 | ≤ 2000 | 
24 | B18 | ≤ 50 | 
25 | B19 | ≤ 200 | 
26 | B20 | > 2000 | 
27 | B21 | ≤ 50 | 
28 | B22 | ≤ 200 | 
29 | B23 | ≤ 50 | 
30 | B24 | ≤ 2000 | 
31 | B25 | ≤ 200 | 
32 | B26 | ≤ 200 | 
33 | B27 | ≤ 200 | 

— patent US7727960B2, “C5a receptor antagonists” (Jerini AG, priority 2003, dated 2010)
